Assay results published in patent publication EP3075390A1 (Immunomedics Inc., dated 2016).
One block for each molecule: values may come before it.

Assays:
[1] = molecular target: IGF-1R and EGP-1 together on MCF-7, DU-145 or ME-180 cells; experiment: flow cytometry (FACScan) on MCF-7 cells; structural control construct
[2] = molecular target: EGP-1 (UniProt P09758); experiment: flow cytometry (FACScan) on MCF-7 cells
[3] = molecular target: EGP-1 (UniProt P09758); experiment: flow cytometry (FACScan) on ME-180 cells
[4] = molecular target: EGP-1 (UniProt P09758); experiment: flow cytometry (FACScan) on DU-145 cells
[5] = molecular target: T1, recombinant human IGF-1R (rhIGF-1R) (human, UniProt P08069 31-935); experiment: labeled antibody on rhIGF-1R-coated beads; competitor: unlabeled 24-60
T1 construct: extracellular domain; also called immobilized recombinant human IGF-1R; IGF-1R-coated beads

[6] = molecular target: T1, recombinant human IGF-1R (rhIGF-1R); experiment: labeled antibody on rhIGF-1R-coated beads; competitor: unlabeled 17-69
[7] = molecular target: T1, recombinant human IGF-1R (rhIGF-1R); experiment: labeled antibody on rhIGF-1R-coated beads; competitor: unlabeled R1
[8] = molecular target: T1, recombinant human IGF-1R (rhIGF-1R); experiment: labeled antibody on rhIGF-1R-coated beads; competitor: unlabeled 1H7
[9] = molecular target: T1, recombinant human IGF-1R (rhIGF-1R); experiment: labeled antibody on rhIGF-1R-coated beads; competitor: unlabeled 1-2
[10] = molecular target: T1, recombinant human IGF-1R (rhIGF-1R); experiment: labeled antibody on rhIGF-1R-coated beads; competitor: unlabeled 24-31
[11] = molecular target: T1, recombinant human IGF-1R (rhIGF-1R); experiment: labeled antibody on rhIGF-1R-coated beads; competitor: unlabeled 2C8
[12] = molecular target: T1, recombinant human IGF-1R (rhIGF-1R); experiment: labeled antibody on rhIGF-1R-coated beads; competitor: unlabeled hR1
[13] = molecular target: T1, recombinant human IGF-1R (rhIGF-1R); experiment: labeled antibody on rhIGF-1R-coated beads; competitor: unlabeled αIR-3
[14] = molecular target: T1, recombinant human IGF-1R (rhIGF-1R); experiment: labeled antibody on rhIGF-1R-coated beads; competitor: unlabeled 3B7
[15] = molecular target: T1, recombinant human IGF-1R (rhIGF-1R); experiment: labeled antibody on rhIGF-1R-coated beads; competitor: unlabeled MAB391
[16] = molecular target: T1, recombinant human IGF-1R (rhIGF-1R); experiment: labeled antibody on rhIGF-1R-coated beads; competitor: unlabeled 24-57
[17] = molecular target: T1, recombinant human IGF-1R (rhIGF-1R); experiment: labeled antibody on rhIGF-1R-coated beads; competitor: unlabeled cR1
[18] = molecular target: IGF-1R and EGP-1 together on MCF-7, DU-145 or ME-180 cells; experiment: flow cytometry (FACScan) on MCF-7 cells; control antibody
[19] = molecular target: IGF-1R and EGP-1 together on MCF-7, DU-145 or ME-180 cells; experiment: flow cytometry (FACScan) on DU-145 cells; control antibody
[20] = molecular target: IGF-1R and EGP-1 together on MCF-7, DU-145 or ME-180 cells; experiment: flow cytometry (FACScan) on ME-180 cells; control antibody
[21] = molecular target: IGF-1R on human cancer cell lines (human) (UniProt P08069); experiment: 125I-IGF-1 binding to MCF-7L cells with antibody at 100 ng/mL
[22] = molecular target: IGF-1R on human cancer cell lines (human) (UniProt P08069); experiment: 125I-IGF-1 binding to MCF-7L cells with antibody at 1000 ng/mL
[23] = molecular target: IGF-1R on human cancer cell lines (human) (UniProt P08069); experiment: flow cytometry (FACScan) on MCF-7 cells
[24] = molecular target: IGF-1R on human cancer cell lines (human) (UniProt P08069); experiment: flow cytometry (FACScan) on ME-180 cells
[25] = molecular target: IGF-1R on human cancer cell lines (human) (UniProt P08069); experiment: flow cytometry (FACScan) on DU-145 cells
[26] = molecular target: T1, recombinant human IGF-1R (rhIGF-1R); experiment: PE-tagged MAB391 on IGF-1R-coated beads with R1 at 100 µg/mL
[27] = molecular target: T2, recombinant human insulin receptor (rhIR) (human, UniProt P06213-2 28-944, limits assumed); experiment: hybridoma screening, assay not described
T2 construct: also called recombinant human IR

[28] = molecular target: T1, recombinant human IGF-1R (rhIGF-1R); experiment: ELISA on immobilized rhIGF-1R (FIG. 3)
[29] = molecular target: T2, recombinant human insulin receptor …; experiment: ELISA on immobilized rhIR

Sequence of EGP-1 (P09758 27-323): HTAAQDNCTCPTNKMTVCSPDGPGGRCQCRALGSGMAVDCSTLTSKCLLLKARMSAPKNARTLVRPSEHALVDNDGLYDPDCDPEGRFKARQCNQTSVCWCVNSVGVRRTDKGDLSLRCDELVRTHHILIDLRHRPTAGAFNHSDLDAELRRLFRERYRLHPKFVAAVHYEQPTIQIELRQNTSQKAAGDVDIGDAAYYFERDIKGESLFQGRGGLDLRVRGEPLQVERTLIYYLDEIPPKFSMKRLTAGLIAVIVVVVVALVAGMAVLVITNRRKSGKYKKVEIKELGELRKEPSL
Sequence of IGF-1R on human cancer cell lines (human) (P08069 31-1367): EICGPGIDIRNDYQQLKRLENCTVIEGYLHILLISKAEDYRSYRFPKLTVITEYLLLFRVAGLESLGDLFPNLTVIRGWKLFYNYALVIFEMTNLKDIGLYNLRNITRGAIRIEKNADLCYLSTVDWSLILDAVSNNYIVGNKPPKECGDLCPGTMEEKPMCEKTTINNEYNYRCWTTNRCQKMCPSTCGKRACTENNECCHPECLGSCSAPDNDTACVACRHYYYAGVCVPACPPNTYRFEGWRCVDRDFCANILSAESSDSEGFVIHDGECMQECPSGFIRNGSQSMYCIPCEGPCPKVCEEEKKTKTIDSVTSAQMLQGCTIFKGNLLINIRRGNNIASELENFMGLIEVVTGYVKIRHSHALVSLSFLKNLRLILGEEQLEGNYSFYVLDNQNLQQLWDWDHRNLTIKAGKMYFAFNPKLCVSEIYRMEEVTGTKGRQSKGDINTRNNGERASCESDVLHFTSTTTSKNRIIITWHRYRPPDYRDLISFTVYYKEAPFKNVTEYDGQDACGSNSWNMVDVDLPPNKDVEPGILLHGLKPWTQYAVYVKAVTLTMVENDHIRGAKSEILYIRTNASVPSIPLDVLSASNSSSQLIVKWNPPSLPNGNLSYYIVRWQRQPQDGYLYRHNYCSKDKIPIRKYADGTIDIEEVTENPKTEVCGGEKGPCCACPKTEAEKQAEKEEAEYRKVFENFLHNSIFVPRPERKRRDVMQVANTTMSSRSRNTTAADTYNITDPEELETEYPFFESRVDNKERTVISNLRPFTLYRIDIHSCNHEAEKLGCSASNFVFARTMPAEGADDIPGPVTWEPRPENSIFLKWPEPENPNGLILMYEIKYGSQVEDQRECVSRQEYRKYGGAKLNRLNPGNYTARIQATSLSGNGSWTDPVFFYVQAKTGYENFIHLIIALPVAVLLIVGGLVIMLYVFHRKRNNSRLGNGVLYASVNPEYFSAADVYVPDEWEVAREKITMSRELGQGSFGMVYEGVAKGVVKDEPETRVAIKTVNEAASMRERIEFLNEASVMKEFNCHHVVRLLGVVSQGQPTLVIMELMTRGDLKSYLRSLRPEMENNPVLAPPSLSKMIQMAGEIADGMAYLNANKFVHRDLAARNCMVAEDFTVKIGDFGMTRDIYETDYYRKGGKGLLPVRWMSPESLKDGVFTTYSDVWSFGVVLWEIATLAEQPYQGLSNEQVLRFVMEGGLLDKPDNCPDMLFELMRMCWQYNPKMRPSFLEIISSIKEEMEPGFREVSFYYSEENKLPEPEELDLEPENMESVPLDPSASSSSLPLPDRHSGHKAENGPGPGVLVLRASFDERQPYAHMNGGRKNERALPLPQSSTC
T1 sequence (P08069 31-935): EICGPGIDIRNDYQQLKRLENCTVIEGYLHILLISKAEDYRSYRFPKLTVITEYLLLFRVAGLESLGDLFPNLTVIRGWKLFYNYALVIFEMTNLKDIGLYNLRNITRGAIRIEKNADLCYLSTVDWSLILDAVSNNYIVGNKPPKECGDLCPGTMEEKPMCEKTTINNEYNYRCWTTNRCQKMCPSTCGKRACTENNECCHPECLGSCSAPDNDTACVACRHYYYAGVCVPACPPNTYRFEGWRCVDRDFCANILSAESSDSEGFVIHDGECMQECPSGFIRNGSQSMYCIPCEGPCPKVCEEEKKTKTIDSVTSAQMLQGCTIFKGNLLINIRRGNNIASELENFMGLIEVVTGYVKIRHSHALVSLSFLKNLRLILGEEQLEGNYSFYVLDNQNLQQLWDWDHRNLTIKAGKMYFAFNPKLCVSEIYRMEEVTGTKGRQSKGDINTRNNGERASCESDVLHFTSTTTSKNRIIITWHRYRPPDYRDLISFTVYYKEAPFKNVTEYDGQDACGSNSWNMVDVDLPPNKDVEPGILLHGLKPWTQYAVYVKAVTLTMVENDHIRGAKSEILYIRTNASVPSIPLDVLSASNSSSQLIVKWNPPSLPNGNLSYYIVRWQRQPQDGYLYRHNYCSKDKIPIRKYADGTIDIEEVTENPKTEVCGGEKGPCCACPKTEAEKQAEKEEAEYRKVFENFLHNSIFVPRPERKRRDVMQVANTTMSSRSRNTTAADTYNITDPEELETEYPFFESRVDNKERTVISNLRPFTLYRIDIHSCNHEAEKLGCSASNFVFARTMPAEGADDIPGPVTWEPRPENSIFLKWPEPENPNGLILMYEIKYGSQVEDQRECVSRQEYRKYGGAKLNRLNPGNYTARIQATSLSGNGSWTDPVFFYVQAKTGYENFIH
T2 sequence (P06213 other isoform, or with tags, fused parts or gaps limits assumed): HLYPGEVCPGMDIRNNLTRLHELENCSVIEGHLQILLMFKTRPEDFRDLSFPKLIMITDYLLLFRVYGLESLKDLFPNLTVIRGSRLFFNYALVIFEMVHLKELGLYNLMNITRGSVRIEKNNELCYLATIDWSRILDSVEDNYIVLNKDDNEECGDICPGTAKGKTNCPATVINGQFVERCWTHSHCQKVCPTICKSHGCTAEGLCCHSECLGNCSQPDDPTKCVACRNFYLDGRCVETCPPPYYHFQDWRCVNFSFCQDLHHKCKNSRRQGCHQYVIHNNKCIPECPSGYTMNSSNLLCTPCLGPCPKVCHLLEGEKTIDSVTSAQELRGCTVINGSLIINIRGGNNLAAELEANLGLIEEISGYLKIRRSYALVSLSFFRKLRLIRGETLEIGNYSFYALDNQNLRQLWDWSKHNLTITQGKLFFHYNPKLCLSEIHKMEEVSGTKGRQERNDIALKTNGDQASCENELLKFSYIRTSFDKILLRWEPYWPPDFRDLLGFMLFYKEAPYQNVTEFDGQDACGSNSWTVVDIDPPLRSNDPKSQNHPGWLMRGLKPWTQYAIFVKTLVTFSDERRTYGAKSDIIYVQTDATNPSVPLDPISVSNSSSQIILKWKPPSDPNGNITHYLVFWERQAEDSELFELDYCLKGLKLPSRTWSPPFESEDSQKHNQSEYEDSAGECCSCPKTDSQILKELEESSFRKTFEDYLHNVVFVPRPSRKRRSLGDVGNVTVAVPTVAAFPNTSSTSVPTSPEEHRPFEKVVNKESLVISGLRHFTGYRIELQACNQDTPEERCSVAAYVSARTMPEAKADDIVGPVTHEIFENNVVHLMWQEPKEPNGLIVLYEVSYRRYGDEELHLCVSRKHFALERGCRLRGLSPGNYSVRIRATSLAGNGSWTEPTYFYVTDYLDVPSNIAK

Molecule: 22-20 (DNL construct of hLL2 IgG-AD2 and hA20 Fab-DDD2) (bispecific antibody)
% Positive [1]: 3.1% | MFI [1]: 2.11

Molecule: Hex-hRS7 (hexavalent DNL construct of hRS7 IgG-AD2 and hRS7 Fab-DDD2)
% Positive [2]: 99.9% | MFI [2]: 35.7 | % Positive [3]: 100% | MFI [3]: 59.6 | % Positive [4]: 93.7% | MFI [4]: 17

Molecule: anti-IGF-1R antibody αIR-3
% binding of labeled antibody [5]: 0% | % binding of labeled antibody [6]: 89% | % binding of labeled antibody [7]: 86% | % binding of labeled antibody [8]: 115% | % binding of labeled antibody [9]: 95% | % binding of labeled antibody [10]: 52% | % binding of labeled antibody [11]: 97% | % binding of labeled antibody [12]: 107% | % binding of labeled antibody [13]: 0% | % binding of labeled antibody [14]: 76% | % binding of labeled antibody [15]: 0% | % binding of labeled antibody [16]: 87% | % binding of labeled antibody [17]: 97%

B2: murine anti-IGF-1R antibody R1 (antibody, V domains shown)
VH: EVKLVESGGGLVQPGGSLKLSCATSGFTFSDYYMYWVRQTPEKRLEWVAYITNYGGSTYYPDTVKGRFTISRDNAKNTLYLQMSRLRSEDTAMYFCARQSNYDYDGWFAYWGQGTTVTVSS
VL: DIVMTQSHKFMSTSVGDRVSITCKASQEVGTAVAWYQQKPGQSPKLLIYWASTRHTGVPDRFTGSGSGTDFTLTISNVQSEDLADYFCQQYSNYPLTFGAGAKLELKR
notes: also called ML04R1; murine R1
% binding of labeled antibody [5]: 43% | % binding of 125I-IGF-1 [21]: 71% | % binding of labeled antibody [7]: 0% | % binding of labeled antibody [8]: 150% | % binding of 125I-IGF-1 [22]: 58% | % inhibition of the binding of PE-tagged MAB391 [26]: 50 to 60% | binding result [27]: no binding | % binding of labeled antibody [12]: 0% | % binding of labeled antibody [13]: 143% | % binding of labeled antibody [14]: 117% | % binding of labeled antibody [17]: 0%

Second part, the molecule after the results:

% binding of labeled antibody [5]: 0% | % binding of labeled antibody [6]: 82% | % binding of labeled antibody [7]: 0% | % binding of labeled antibody [8]: 100% | % binding of labeled antibody [9]: 100% | % binding of labeled antibody [10]: 18% | % binding of labeled antibody [11]: 88% | % binding of labeled antibody [12]: 0% | % binding of labeled antibody [13]: 21% | % binding of labeled antibody [14]: 79% | % binding of labeled antibody [15]: 0% | % binding of labeled antibody [16]: 88% | % binding of labeled antibody [17]: 0%
Molecule: anti-IGF-1R antibody 24-60

% Positive [18]: 2.34% | MFI [18]: 1.84 | % Positive [19]: 1.44% | MFI [19]: 2.21 | % Positive [20]: 1.37% | MFI [20]: 1.8
Molecule: human IgG (control) (antibody)

% binding of 125I-IGF-1 [21]: 54% | % binding of labeled antibody [7]: 40% | % binding of 125I-IGF-1 [22]: 38% | % binding of labeled antibody [15]: 0%
Molecule: mouse anti-IGF-1R monoclonal antibody MAB391

% binding of labeled antibody [5]: 71% | % binding of labeled antibody [6]: 100% | % Positive [23]: 89.2% | MFI [23]: 9.93 | % binding of labeled antibody [7]: 0% | % binding of labeled antibody [8]: 131% | % binding of labeled antibody [9]: 100% | % Positive [24]: 10.7% | MFI [24]: 3.65 | % binding of labeled antibody [10]: 100% | % binding of labeled antibody [11]: 100% | % binding of labeled antibody [12]: 0% | % Positive [25]: 30.4% | MFI [25]: 5.33 | % binding of labeled antibody [13]: 136% | % binding of labeled antibody [14]: 100% | % binding of labeled antibody [15]: 121% | % binding of labeled antibody [16]: 100% | % binding of labeled antibody [17]: 0%
B1: humanized R1 antibody (hR1) (antibody, V domains shown)
VH: QVQLQESGGGVVQPGRSLRLSCSASGFTFSDYYMYWVRQAPGKGLEWVAYITNYGGSTYYPDTVKGRFTISRDNAKNTLFLQMDSLRPEDTGVYFCARQSNYDYDGWFAYWGQGTPVTVSS
VL: DIQLTQSPSSLSASVGDRVTITCKASQEVGTAVAWYQQKPGKAPKLLIYWASTRHTGVPSRFSGSGSGTDFTFTISSLQPEDIATYFCQQYSNYPLTFGQGTKVEIKR

Kd [28]: ~0.1 nM | binding result [29]: no binding
B3: chimeric R1 antibody (cR1) (antibody, V domains shown)
VH: B2 VH
VL: B2 VL
notes: Mouse-human chimeric mAb of R1, R1 VH and VK in the pdHL2 vector with human constant regions; also called clones 709.2D2 and 710.2G2
